Assay results reported in US20260115269A1, “MYC[…] CELL EPITOPES, MEGAPOOLS AND USES THEREOF” (La Jolla Institute for Immunology, priority 2022, published 2026).

What was measured:
[1] = tested on: PBMCs from participants mid-treatment for ATB; experiment: Proteome-wide peptide library screen: ex vivo IFNγ and IL-17 Fluorospot, positive pools deconvoluted to individual epitopes; type: cell-based, human; details: n=21
[2] = tested on: PBMCs from ATB participants; experiment: Fluorospot screen of 517 overlapping 15-mer peptides spanning TB vaccine candidate and IGRA antigens; type: cell-based, human; details: overlapping 15-mers; IGRA+ data from previous study

Molecule	antigen recognition in the proteome-wide screen [1]	antigen recognition in ATB (n=21) compared with healthy IGRA+ participants (n=63) [2]
Rv3874: Mtb IGRA antigen, tested as peptides	most frequently recognized	most frequently recognized
Rv3615c: Mtb antigen included in the ESAT-6 free IGRA test (protein, UniProt P9WJD7 2-103, looked up) ESX-1 secretion-associated …: TENLTVQPERLGVLASHHDNAAVDASSGVEAAAGLGESVAITHGPYCSQFNDTLNVYLTAHNALGSSLHTAGVDLAKSLRIAAKIYSEADEAWRKAIDGLFT	most frequently recognized	
Rv1196: Mtb vaccine candidate antigen, tested as peptides (protein, UniProt L7N675 1-391, looked up, tested as peptides) PPE family protein PPE18: MVDFGALPPEINSARMYAGPGSASLVAAAQMWDSVASDLFSAASAFQSVVWGLTVGSWIGSSAGLMVAAASPYVAWMSVTAGQAELTAAQVRVAAAAYETAYGLTVPPPVIAENRAELMILIATNLLGQNTPAIAVNEAEYGEMWAQDAAAMFGYAAATATATATLLPFEEAPEMTSAGGLLEQAAAVEEASDTAAANQLMNNVPQALQQLAQPTQGTTPSSKLGGLWKTVSPHRSPISNMVSMANNHMSMTNSGVSMTNTLSSMLKGFAPAAAAQAVQTAAQNGVRAMSSLGSSLGSSGLGGGVAANLGRAASVGSLSVPQAWAAANQAVTPAARALPLTSLTSAAERGPGQMLGGLPVGQMGARAGGGLSGVLRVPPRPYVMPHSPAAG		most frequently recognized
Rv0288: Mtb antigen, TB vaccine candidate antigen, tested as peptides (protein, UniProt P9WNK3 1-96, looked up, tested as peptides) ESAT-6-like protein EsxH: MSQIMYNYPAMLGHAGDMAGYAGTLQSLGAEIAVEQAALQSAWQGDTGITYQAWQAQWNQAMEDLVRAYHAMSSTHEANTMAMMARDTAEAAKWGG	most frequently recognized	most frequently recognized
